Reference: patent publication US20050260575, “Method for identifying substances useful for treating inflammation using the response element to the ikbalpha ror receptor” (published 2005)

T1: RORα1 (Homo sapiens, UniProt P35398 P35398:1-523)
T1 sequence: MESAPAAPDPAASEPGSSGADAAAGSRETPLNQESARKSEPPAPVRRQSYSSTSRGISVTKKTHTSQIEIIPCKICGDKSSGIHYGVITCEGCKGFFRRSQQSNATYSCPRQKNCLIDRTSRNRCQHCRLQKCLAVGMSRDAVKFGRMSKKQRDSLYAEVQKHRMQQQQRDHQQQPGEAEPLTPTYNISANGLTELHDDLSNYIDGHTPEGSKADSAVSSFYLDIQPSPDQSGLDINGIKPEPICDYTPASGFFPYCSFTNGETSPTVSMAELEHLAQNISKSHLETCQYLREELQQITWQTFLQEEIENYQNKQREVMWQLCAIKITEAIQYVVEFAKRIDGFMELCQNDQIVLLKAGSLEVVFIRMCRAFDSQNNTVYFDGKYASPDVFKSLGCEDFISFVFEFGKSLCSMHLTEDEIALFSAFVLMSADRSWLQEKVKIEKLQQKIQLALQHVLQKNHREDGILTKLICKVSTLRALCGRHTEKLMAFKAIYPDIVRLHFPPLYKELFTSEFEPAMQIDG

B1: IκBα-RORE (dsDNA)
DNA 1: GAGCACAATGTAGGTCAGATAG
DNA 2: CTATCTGACCTACATTGTGCTC
B2: IκBα-RORE mutant (dsDNA)
DNA 1: GAGCACAATGTACCTCAGATAG
DNA 2: CTATCTGAGGTACATTGTGCTC

Columns and labels:
RORα1 [1] = target: T1, RORα1; assay: EMSA; supershift with RORα1 antibody; native competitor 1x-100x; exact probe length not stated; details: tags: TNT-T7 Promega; hRORα1; label: labelled probe
Description: (§1) FIG. 6C depicts the gel shift experiments conducted by using the in vitro translated RORαl protein (TNT-T7 Promega) and an IκBα-RORE labelled probe. […] To […] the mobility of the complex, 1 μl of RORα1 antibody was added to the binding reaction (S: shift of the complex; SS: super-shift of the complex; FP: unbound probe).
(§2) It has been shown that the negative dominant RORαΔ235 missing the LBD domain inhibits RORα1-induced transcription by competing with the same DNA binding domain (Mc Broom, L. D. B., Flock, G. and Giguère, V., Mol. Cell. Biol. 1995, 15: 796-808). The effect of this mutant on the promoter under the control of the IκBα gene RORE inducible by RORα1 was tested. Cotransfection with RORαΔ235 abolished the effect of RORα1 (FIG. 6B). […] Finally, binding of RORα1 to its response element RORE was checked by gel shift assays, using in vitro translated RORα1 protein.

RORα1 [2] = target: T1, RORα1; assay: competition; unlabelled mutated competitor 1x-100x used as specificity control; full oligo sequence not stated, SEQ 15 matches the ACCTCA mutation; details: tags: TNT-T7 Promega; hRORα1
Description: as §1, §2

Binder | binding result (RORα1 [1]) | binding result (RORα1 [2])
B1 | binds | –
B2 | – | no binding
